According to patent US20250237662A1:

Experiments:
[1] = target: humanized development candidate monoclonal antibody IgG4 (hIgG4); assay: Gyrolab, mAb as capture, hIgG4 8 ng/ml
[2] = target: humanized development candidate monoclonal antibody IgG4 (hIgG4); assay: Gyrolab, mAb as capture, hIgG4 40 ng/ml
[3] = target: drug: a monoclonal antibody of human IgG4 isotype (PandA assay); assay: PandA assay, monkey matrix, mAb 1 ug/ml
[4] = target: drug: a monoclonal antibody of human IgG4 isotype (PandA assay); assay: PandA assay, monkey matrix, mAb 5 ug/ml
[5] = target: humanized development candidate monoclonal antibody IgG4 (hIgG4); assay: Gyrolab, mAb as capture, hIgG4 1.6 ng/ml
[6] = target: humanized development candidate monoclonal antibody IgG4 (hIgG4); assay: Gyrolab, mAb as capture, hIgG4 200 ng/ml
[7] = target: humanized development candidate monoclonal antibody IgG4 (hIgG4); assay: Gyrolab, mAb as capture, hIgG4 0.32 ng/ml
[8] = target: humanized development candidate monoclonal antibody IgG4 (hIgG4); assay: Gyrolab, mAb as capture, hIgG4 1000 ng/ml
[9] = target: humanized development candidate monoclonal antibody IgG4 (hIgG4); assay: Gyrolab, mAb as capture, hIgG4 5000 ng/ml
[10] = target: drug: a monoclonal antibody of human IgG4 isotype (PandA assay); assay: PandA assay, mAb 1 ug/ml in monkey plasma
[11] = target: drug: a monoclonal antibody of human IgG4 isotype (PandA assay); assay: PandA assay, monkey matrix, mAb 0.5 ug/ml
[12] = target: drug: a monoclonal antibody of human IgG4 isotype (PandA assay); assay: PandA assay, monkey matrix, mAb 0.75 ug/ml
[13] = target: drug: a monoclonal antibody of human IgG4 isotype (PandA assay); assay: PandA assay, mAb 0.5 ug/ml in monkey plasma
[14] = target: drug: a monoclonal antibody of human IgG4 isotype (PandA assay); assay: PandA assay, mAb 0.75 ug/ml in monkey plasma
[15] = target: humanized therapeutic monoclonal antibody IgG1 (hIgG1); assay: direct ELISA, hIgG1 coated, B-cell culture medium
[16] = target: humanized development candidate monoclonal antibody IgG4 (hIgG4); assay: direct ELISA, hIgG4 coated, B-cell culture medium
[17] = target: humanized development candidate monoclonal antibody IgG4 (hIgG4); assay: Gyrolab, mAb as capture, hIgG4 8 ng/ml, against the blank
[18] = target: humanized development candidate monoclonal antibody IgG4 (hIgG4); assay: Gyrolab, mAb as capture, hIgG4 40 ng/ml, against the blank
[19] = target: humanized development candidate monoclonal antibody IgG4 (hIgG4); assay: Gyrolab, mAb as capture, hIgG4 1.6 ng/ml, against the blank
[20] = target: humanized development candidate monoclonal antibody IgG4 (hIgG4); assay: Gyrolab, mAb as capture, hIgG4 200 ng/ml, against the blank
[21] = target: humanized development candidate monoclonal antibody IgG4 (hIgG4); assay: Gyrolab, mAb as capture, hIgG4 0.32 ng/ml, against the blank
[22] = target: humanized development candidate monoclonal antibody IgG4 (hIgG4); assay: Gyrolab, mAb as capture, hIgG4 1000 ng/ml, against the blank
[23] = target: humanized development candidate monoclonal antibody IgG4 (hIgG4); assay: Gyrolab, mAb as capture, hIgG4 5000 ng/ml, against the blank
[24] = target: cynomolgus monkey IgG (cynoIgG); assay: direct ELISA, cynoIgG coated (hIgG1/CynoIgG screen), B-cell culture medium
[25] = target: cynomolgus monkey IgG (cynoIgG); assay: direct ELISA, cynoIgG coated (hIgG4/CynoIgG screen), B-cell culture medium
[26] = target: humanized therapeutic monoclonal antibody IgG1 (hIgG1); assay: ELISA, medium of transfected HEK293F; signal on hIgG1 over signal on cynoIgG
[27] = target: humanized development candidate monoclonal antibody IgG4 (hIgG4); assay: ELISA, medium of transfected HEK293F; signal on hIgG4 over signal on cynoIgG
[28] = target: drug: a monoclonal antibody of human IgG4 isotype (PandA assay); assay: PandA assay, signal to noise against the negative control
[29] = target: humanized development candidate monoclonal antibody IgG4 (hIgG4); assay: SPR (Biacore T200), mAb captured by anti-rabbit mAb on CM5, antigen 80-0 nM, 1:1 fit
[30] = target: humanized therapeutic monoclonal antibody IgG1 (hIgG1); assay: as above
[31] = target: internal research reagent human Fab (hFab); assay: as above
[32] = target: drug: a monoclonal antibody of human IgG4 isotype (PandA assay); assay: PandA assay (PEG precipitation, acid dissociation, MSD plate, sulfo-TAG-drug), mAb 5 ug/ml in monkey plasma

B1: rabbit anti-human IgG monoclonal antibody clone 2C5 (antibody, V domains shown)
VH: QEQLVESGGDLVKPGASLTLTCTASGFSFSSGYYMCWVRQAPGKGLEWIACIYGGALTNTYYATWAKGRFTISKTSSTTVTLQMTSLTAADTATYFCARDLGAAGDAYNLWGPGTLVTVSS
VL: ASDMTQTPASVSAAVGGTVTIKCQASESIYSGLAWYQQKPGQPPKLLIFDASDLASGVPSRFKGSRSETEYTLTISDLECADAATYYCQCTDRNSITSYAFGGGTEVVVKG
B1 showed an Av. Resp. [1] of 6.6, an Av. Resp. [2] of 23.4 and a S/N (monkey) [3] of 3.39. For the same binder, the S/N (monkey) [4] was 15.7, the Av. Resp. [5] was 3 and the Av. Resp. [6] was 87.7. The Av. Resp. [7] was 2.1, the Av. Resp. [8] was 232 and the Av. Resp. [9] was 317. It also gave an ECL Signal [10] of 426, a S/N (monkey) [11] of 1.93 and a S/N (monkey) [12] of 2.51. It also gave an ECL Signal [13] of 188, an ECL Signal [14] of 323 and an OD450 [15] of 1.24 OD450. The OD450 [16] was 1.29 OD450, the S/B [17] was 3.2 and the S/B [18] was 11.1. For the same binder, the S/B [19] was 1.4, the S/B [20] was 41.7 and the S/B [21] was 1. For the same binder, the S/B [22] was 110, the S/B [23] was 151 and the OD450 [24] was 0.107 OD450. It also gave an OD450 [25] of 0.124 OD450, an ELISA signal ratio hIgG1/CynoIgG [26] of 7.72 and an ELISA signal ratio hIgG4/CynoIgG [27] of 7.91. The S/N [28] was 1.98, the Kd [29] was 0.1 nM and the koff [29] was 1.36e-05 s⁻¹. It also gave a kon [29] of 135000 M⁻¹ s⁻¹, a Kd [30] of 0.277 nM and a koff [30] of 3.8e-05 s⁻¹. For the same binder, the kon [30] was 137000 M⁻¹ s⁻¹, the Kd [31] was 0.55 nM and the koff [31] was 0.00146 s⁻¹. The kon [31] was 2.65e+06 M⁻¹ s⁻¹ and the ECL Signal [32] was 2180.
